Test [1] has as its target YFV X-SS-prME-XX (yellow fever virus 17D) (yellow fever virus strain 17D) (UniProt P03314).
Test [2] has as its target influenza HA protein (Flu A HA) (influenza A).

Sequence of UniProt P03314 (P03314 92-788 limits assumed): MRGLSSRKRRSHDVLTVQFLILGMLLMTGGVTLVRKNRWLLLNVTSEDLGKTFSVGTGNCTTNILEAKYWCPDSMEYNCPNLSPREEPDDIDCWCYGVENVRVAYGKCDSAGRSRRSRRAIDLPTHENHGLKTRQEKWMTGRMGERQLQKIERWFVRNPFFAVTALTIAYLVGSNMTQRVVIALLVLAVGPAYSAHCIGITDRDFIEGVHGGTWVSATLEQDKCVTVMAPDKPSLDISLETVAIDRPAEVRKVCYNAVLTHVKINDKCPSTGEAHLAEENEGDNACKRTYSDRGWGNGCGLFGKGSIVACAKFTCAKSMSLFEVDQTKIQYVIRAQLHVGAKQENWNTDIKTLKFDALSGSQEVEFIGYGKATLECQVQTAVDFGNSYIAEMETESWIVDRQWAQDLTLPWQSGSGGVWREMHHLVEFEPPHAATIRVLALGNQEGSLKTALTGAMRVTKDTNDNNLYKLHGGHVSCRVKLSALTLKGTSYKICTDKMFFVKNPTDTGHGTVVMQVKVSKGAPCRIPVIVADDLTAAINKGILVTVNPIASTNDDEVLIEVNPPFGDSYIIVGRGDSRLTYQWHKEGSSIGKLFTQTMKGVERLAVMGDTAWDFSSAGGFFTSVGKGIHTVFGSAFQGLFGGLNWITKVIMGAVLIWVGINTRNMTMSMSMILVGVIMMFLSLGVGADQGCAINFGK

For the substance “anti YF virus specific antibody (sc-58083 from Santa Cruz)”, the FITC positive cells in test [1] came out at 82%; in test [2], 45.1%.

(Values after patent publication US11931406.)
